Results published in the supplement of paper PMC7877785.
± gives the uncertainty stated by the source.

Assay: self-splicing fitness, log relative to wild type (ln ratio); higher = more splicing; Tetrahymena group I intron in knt gene, E. coli kanamycin selection, DiMSum; sequences stand for … in CUCUCU…GGAGGGAAAAGUUAUCAGGCAUGCACCUGGUAGCUAGUCUUUAAACCAAUAGAUUGCAUCGGUUUAAAAGGCAAGACCGUCAAAUUGCGGGAAAGGGGUCAACAGCCGUUCAGUACCAAGUCUCAGGGGAAACUUUGAGAUGGCCUUGCAAAGGGUAUGGUAAUAAGCUGACGGACAUGGUCCUAACCACGCAGCCAAGUCCUAAGUCAACAGAUCUUCUGUUGAUAUGGAUGCAGUUCACAGACUAAAUGUCGGUCGGGGAAGAUGUAUUCUUCUCAUAAGAUAUAGUCGGACCUCUCCUUAAUGGGAGCUAGCGGAUGAAGUGAUGCAACACUGGAGCCGCUGGGAACUAAUUUGUAUGCGAAAGUAUAUUGAUUAGUUUUGGAGUACUCGUGGUCG
Outline: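 The eight P1ex-region nucleotides of an intron in the knt kanamycin-resistance gene on pET-22b(+) were all randomised and the library put into E. coli BL21(DE3). Six replicate transformations were grown overnight at 37°C or 30°C on LB agar with or without 25 μg/mL kanamycin, together with 100 μg/mL carbenicillin, 50 μM IPTG and 0.2% rhamnose. Colonies were pooled and amplicon-sequenced on an Illumina HiSeq 2500. Fitness from DiMSum is the error-weighted combination of wild-type-normalised replicate fold changes, kanamycin over none.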

| Sequence | self-splicing fitness (ln) (30 °C) | self-splicing fitness (ln) (37 °C) |
| --- | --- | --- |
| GGCUAGCAAUAUUACGGUGC | -1.49 ± 0.19 | -0.767 ± 0.2 |
| GGGUAGCAAUAUUACGACGG | – | -1.18 ± 0.44 |
| ACCCAGCAAUAUUACGGUGC | -1.11 ± 0.069 | -0.261 ± 0.086 |
| AUCGAGCAAUAUUACGAGGU | -3.26 ± 0.3 | -2.93 ± 0.4 |
| GUCGAGCAAUAUUACGACUG | -3.17 ± 0.45 | -0.232 ± 0.18 |
| AAGGAGCAAUAUUACGGGAU | -4.25 ± 0.29 | -3.56 ± 0.36 |
| UACCAGCAAUAUUACGAUAG | -1.1 ± 0.067 | 0.0475 ± 0.097 |
| GUGUAGCAAUAUUACGCAGG | – | -2.3 ± 0.32 |
| UAGGAGCAAUAUUACGCUAA | – | -1.57 ± 0.41 |
| CUCCAGCAAUAUUACGCUAC | -4.08 ± 0.29 | -2.75 ± 0.23 |
| CGUAAGCAAUAUUACGGACC | -0.744 ± 0.11 | -0.0128 ± 0.14 |
| UCCCAGCAAUAUUACGGGAC | -2.69 ± 0.17 | -2.49 ± 0.3 |
| UUGGAGCAAUAUUACGGAAA | -3.48 ± 0.47 | -1.64 ± 0.24 |
| UCUUAGCAAUAUUACGAGCU | -3.09 ± 0.34 | -1.01 ± 0.26 |
| CCUUAGCAAUAUUACGUCAA | -2.87 ± 0.33 | – |
| AGUAAGCAAUAUUACGAAGU | -1.75 ± 0.24 | -0.18 ± 0.27 |
| UCGUAGCAAUAUUACGAACG | -2.5 ± 0.21 | -1.94 ± 0.23 |
| CCUCAGCAAUAUUACGAUAG | -0.572 ± 0.067 | -1.24 ± 0.1 |
| AUGAAGCAAUAUUACGAAGA | -1.9 ± 0.13 | -0.83 ± 0.16 |
| UAGGAGCAAUAUUACGUGGG | -3.17 ± 0.24 | -3.32 ± 0.38 |
| GUUAAGCAAUAUUACGGCAA | 0.045 ± 0.2 | -0.394 ± 0.22 |
| CGAUAGCAAUAUUACGCCUC | -2.84 ± 0.24 | -1.74 ± 0.26 |
| GGCCAGCAAUAUUACGACAG | -4.12 ± 0.25 | -3.08 ± 0.35 |
| AGGUAGCAAUAUUACGAUAG | -3.728 ± 0.035 | -2.72 ± 0.045 |
| ACAGAGCAAUAUUACGCUGG | -3.47 ± 0.14 | -2.53 ± 0.16 |
| GUACAGCAAUAUUACGAUAC | -2.35 ± 0.21 | -2.52 ± 0.22 |

| Sequence | self-splicing fitness (ln) (30 °C) | self-splicing fitness (ln) (37 °C) |
| --- | --- | --- |
| GCUUAGCAAUAUUACGCUCG | -0.579 ± 0.1 | -0.0325 ± 0.16 |
| UAAUAGCAAUAUUACGGUGG | -4.08 ± 0.25 | -1.12 ± 0.12 |
| UGGGAGCAAUAUUACGUUUC | -3.05 ± 0.23 | -1.66 ± 0.4 |
| GCUUAGCAAUAUUACGUAUG | -1.6 ± 0.18 | -1.17 ± 0.2 |
| GCCUAGCAAUAUUACGACUA | – | -1.93 ± 0.38 |
| ACACAGCAAUAUUACGGACG | -0.635 ± 0.057 | 0.0496 ± 0.073 |
| GCGAAGCAAUAUUACGGCGC | -2.48 ± 0.29 | -1.01 ± 0.43 |
| UACCAGCAAUAUUACGUUCG | -0.545 ± 0.071 | 0.0802 ± 0.092 |
| UCUAAGCAAUAUUACGGGGU | -2.9 ± 0.26 | -2.45 ± 0.21 |
| UACUAGCAAUAUUACGAGUA | -2.36 ± 0.18 | -1.77 ± 0.19 |
| UGUGAGCAAUAUUACGAGCA | -0.913 ± 0.16 | -0.797 ± 0.21 |
| CAACAGCAAUAUUACGCGAG | -2.29 ± 0.089 | -0.359 ± 0.066 |
| GUCCAGCAAUAUUACGGGUU | -1.58 ± 0.07 | -1.03 ± 0.073 |
| UAUCAGCAAUAUUACGAGGA | -0.877 ± 0.13 | -1.39 ± 0.14 |
| CUUUAGCAAUAUUACGGGUG | -0.377 ± 0.072 | 0.108 ± 0.091 |
| GUAUAGCAAUAUUACGAUCG | -1.69 ± 0.33 | -0.878 ± 0.31 |
| ACUCAGCAAUAUUACGUACG | -2.58 ± 0.14 | -0.864 ± 0.11 |
| GACCAGCAAUAUUACGGCCC | -2.54 ± 0.24 | -1.98 ± 0.34 |
| AACGAGCAAUAUUACGCCUU | -3.47 ± 0.16 | -1.8 ± 0.11 |
| GUUUAGCAAUAUUACGCGGA | -1.9 ± 0.24 | -1.82 ± 0.37 |
| GCCUAGCAAUAUUACGAAGA | -1.82 ± 0.24 | -0.65 ± 0.12 |
| AGCGAGCAAUAUUACGUUAA | -3.86 ± 0.37 | -2.67 ± 0.3 |
| UGGGAGCAAUAUUACGGGCG | -2.4 ± 0.27 | -0.751 ± 0.26 |
| AAUGAGCAAUAUUACGAACA | -1.5 ± 0.45 | -1.2 ± 0.48 |
| UGUAAGCAAUAUUACGAUAC | -2.7 ± 0.28 | -2.07 ± 0.26 |
| CGCGAGCAAUAUUACGCGAC | -2.96 ± 0.34 | -0.404 ± 0.39 |

| Sequence | self-splicing fitness (ln) (30 °C) | self-splicing fitness (ln) (37 °C) |
| --- | --- | --- |
| CCGCAGCAAUAUUACGCACG | -0.993 ± 0.097 | -0.578 ± 0.11 |
| AACCAGCAAUAUUACGGAGU | -1.66 ± 0.048 | -0.881 ± 0.064 |
| UCUGAGCAAUAUUACGCACU | -4.18 ± 0.39 | -2.1 ± 0.28 |
| UUUUAGCAAUAUUACGCGCU | -2.57 ± 0.25 | -0.994 ± 0.21 |
| CCCUAGCAAUAUUACGAUAC | -2.76 ± 0.38 | – |
| GCUGAGCAAUAUUACGUUGC | -4.04 ± 0.2 | -2.53 ± 0.17 |
| UCGUAGCAAUAUUACGGUCG | -1.69 ± 0.12 | 0.265 ± 0.13 |
| GGGGAGCAAUAUUACGGAAC | – | -2.95 ± 0.26 |
| GCAGAGCAAUAUUACGGCUC | -2.69 ± 0.37 | -1.99 ± 0.46 |
| UAAGAGCAAUAUUACGAGAG | -2.23 ± 0.38 | -1.95 ± 0.36 |
| GCCGAGCAAUAUUACGCAAG | -2.91 ± 0.44 | -1.25 ± 0.36 |
| AUGGAGCAAUAUUACGGCCA | -1.49 ± 0.18 | -0.494 ± 0.21 |
| CGUUAGCAAUAUUACGUUCU | -1.39 ± 0.15 | -1.25 ± 0.14 |
| GUGCAGCAAUAUUACGAAGG | -2.59 ± 0.19 | -1.53 ± 0.23 |
| AUUGAGCAAUAUUACGAUUA | -2.36 ± 0.23 | -2.62 ± 0.36 |
| CAUAAGCAAUAUUACGGUAA | -3.92 ± 0.46 | -2.77 ± 0.29 |
| AUGAAGCAAUAUUACGCGAG | -0.689 ± 0.09 | -0.225 ± 0.099 |
| CUGUAGCAAUAUUACGGCUA | – | -1.51 ± 0.39 |
| CAUCAGCAAUAUUACGAACC | -2.59 ± 0.24 | -0.525 ± 0.46 |
| CAUCAGCAAUAUUACGUUUA | -1.36 ± 0.086 | -1.36 ± 0.094 |
| GCUCAGCAAUAUUACGGUUG | -4.11 ± 0.27 | -2.28 ± 0.24 |
| CAGAAGCAAUAUUACGUAUC | – | -3.17 ± 0.24 |
| CAAGAGCAAUAUUACGGGUU | -3.54 ± 0.18 | -3.25 ± 0.23 |
| GUGAAGCAAUAUUACGGGCA | -0.763 ± 0.064 | -0.106 ± 0.083 |
| CAUGAGCAAUAUUACGCCGG | -3.79 ± 0.22 | -2.14 ± 0.26 |
| AGUAAGCAAUAUUACGUUUG | -4.38 ± 0.29 | -2.13 ± 0.21 |
